This is an account of results in paper PMC3042988, “The activation mechanism of Irga6, an interferon-inducible GTPase contributing to mouse resistance against Toxoplasma gondii” (BMC Biology, 2011).

B1: Irga6 (IIGP1), wild type, recombinant, GST cleaved off (enzyme, mouse)
chain: MGQLFSSPKSDENNDLPSSFTGYFKKFNTGRKIISQEILNLIELRMRKGNIQLTNSAISDALKEIDSSVLNVAVTGETGSGKSSFINTLRGIGNEEEGAAKTGVVEVTMERHPYKHPNIPNVVFWDLPGIGSTNFPPNTYLEKMKFYEYDFFIIISATRFKKNDIDIAKAISMMKKEFYFVRTKVDSDITNEADGKPQTFDKEKVLQDIRLNCVNTFRENGIAEPPIFLLSNKNVCHYDFPVLMDKLISDLPIYKRHNFMVSLPNITDSVIEKKRQFLKQRIWLEGFAADLVNIIPSLTFLLDSDLETLKKSMKFYRTVFGVDETSLQRLARDWEIEVDQVEAMIKSPAVFKPTDEETIQERLSRYIQEFCLANGYLLPKNSFLKEIFYLKYYFLDMVTEDAKTLLKEICL
notes: Irga6 (IIGP1), mouse immunity-related GTPase; also called WT Irga6; source: E. coli BL21, purified (glutathione Sepharose, GST cleaved off with thrombin, Superdex 75); not shown: GST, N-terminal, cleaved
B2: Irga6-R31E-K32E (enzyme, mouse)
chain: B1 chain with R31E, K32E
notes: Irga6 (IIGP1), mouse; mutant made in pGEX-4T-2-Irga6; also called Arg31, Lys32 mutant; not shown: GST, N-terminal, cleaved
B3: Irga6 with Lys101 mutated to glutamate (enzyme, mouse)
chain: B1 chain with K101E
notes: Irga6 (IIGP1), mouse; mutant made in pGEX-4T-2-Irga6; also called Lys101 mutant; K101E; source: E. coli BL21, purified (glutathione Sepharose, GST cleaved off with thrombin, Superdex 75); not shown: GST, N-terminal, cleaved
B4: Irga6-K176E (enzyme, mouse)
chain: B1 chain with K176E
notes: Irga6 (IIGP1), mouse; mutant made in pGEX-4T-2-Irga6; not shown: GST, N-terminal, cleaved
B5: Irga6-K246E (enzyme, mouse)
chain: B1 chain with K246E
notes: as for B4
B6: Irga6-D186N (enzyme, mouse)
chain: B1 chain with D186N
notes: Irga6 (IIGP1), mouse; mutant made in pGEX-4T-2-Irga6; also called G4-motif mutant; source: E. coli BL21, purified (glutathione Sepharose, GST cleaved off with thrombin, Superdex 75); not shown: GST, N-terminal, cleaved
B7: Irga6-R210E (enzyme, mouse)
chain: B1 chain with R210E
notes: as for B4
B8: Irga6-E106N (enzyme, mouse)
chain: B1 chain with E106N
notes: Irga6 (IIGP1), mouse; mutant made in pGEX-4T-2-Irga6; source: E. coli BL21, purified (glutathione Sepharose, GST cleaved off with thrombin, Superdex 75); not shown: GST, N-terminal, cleaved
B9: Irga6-E106A (enzyme, mouse)
chain: B1 chain with E106A
notes: as for B8
B10: Irga6-E106D (enzyme, mouse)
chain: B1 chain with E106D
notes: as for B8
B11: Irga6-K169E (enzyme, mouse)
chain: B1 chain with K169E
notes: as for B4
B12: Irga6-E106Q (enzyme, mouse)
chain: B1 chain with E106Q
notes: as for B8

Numbering of substitutions follows the chain as printed. In names and notes the source's numbering stands.

This series concerns the molecule itself. The series can be described thus: light scattering; self-association (oligomerisation) of 80 μM Irga6 with 10 mM GTP at 37°C; B1 buffer (50 mM Tris/HCl pH 7.4, 5 mM MgCl2)/2 mM DTT; conventional light scattering at 350 or 600 nm.
Take B1: the binding result is “binds”. Next, B2: “binds”; B3: “binds”.

Take B4: the binding result is listed as “binds”. As for B5, the binding result is given as “binds”. For B6 the value was “binds”; for B7, “binds”. Next, B8: “binds”; B9: “binds”; B10: “binds”. For B11 the value was “binds”; for B12, “binds”.
